The values that follow come from patent US20080311122A1 (AstraZeneca / MedImmune, published 2008).

Test [1] has as its target T1, HMGB1 in joint lysates of adjuvant induced arthritis (AIA) rats (rat, UniProt P63159 2-215).
T1 construct: also called HMGB1 from arthritis joints; AA joint lysates
T1 sequence (looked up): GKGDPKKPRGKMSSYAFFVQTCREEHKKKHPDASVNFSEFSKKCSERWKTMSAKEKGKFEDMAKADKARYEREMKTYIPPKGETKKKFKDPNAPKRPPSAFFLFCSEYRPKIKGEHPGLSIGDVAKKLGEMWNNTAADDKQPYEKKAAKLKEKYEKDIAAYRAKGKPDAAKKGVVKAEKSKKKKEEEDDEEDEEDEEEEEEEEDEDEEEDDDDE
Nature of the test: sandwich ELISA and immunoprecipitation with Western blot. On the procedure:
HMGB1 Detection from Biological Samples: For detection of the HMGB1 from AA joint homogenates and peritonitis sera, sandwich ELISA was performed. Goat anti-human Fc (Pierce) 14 μg/ml in PBS was coated on Immunlon IV microtiter plate over night at 4° C. After washing and blocking with 5% milk 1 hr at room temperature, G4 or S6 in blocking buffer (10 μg/ml) were added to each well of the blocked plate. The plate was washed 1 hour later and 25 μl of AIA homogenates containing 0.8 μg/ml of HMGB1 or peritonitis sera containing 7 μg/ml of HMGB1 in 0.5 M NaCl/blocking buffer were added to the wells at two fold serial dilutions. The unbound materials were removed by washing one hr after incubation. The bound HMGB1 was detected by a mouse anti-HMGB1 antibody at 2 μg/ml followed by an anti-mouse antibody conjugated with horseradish peroxidase. Mouse peritonitis sera was obtained by heart puncture 7 days after infection with heat killed staphylococcus aureus. Joint lysate was prepared from the whole paw of AIA rats as described in Example 6 below. Human sepsis sera were purchased from a commercial source.
Immunoprecipitation and Western Blot: Anti-HMGB1 mAbs (G4 and S6) and isotype control were first biotinylated using EZ-Link Sulfo-NHS-LC-Biotin as instructed by the manufacturer (Pierce). After labeling, the mAb was tested for binding to HMGB1 by ELISA with unlabeled mAbs as controls. […]

The target of test [2] is T2, activated HMG1 prepared from LPS stimulated THP-1 cells (human, UniProt P09429 1-215).
T2 sequence (looked up): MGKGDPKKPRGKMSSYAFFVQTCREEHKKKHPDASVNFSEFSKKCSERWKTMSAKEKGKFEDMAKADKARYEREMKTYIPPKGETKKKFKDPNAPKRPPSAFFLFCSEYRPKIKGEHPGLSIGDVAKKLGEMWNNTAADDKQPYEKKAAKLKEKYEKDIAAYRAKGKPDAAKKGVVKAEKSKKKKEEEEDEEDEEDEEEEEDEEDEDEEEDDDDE
Nature of the test: cell-based or functional assay.

B1: anti-HMG1 antibody G4 (antibody, V domains shown)
VH: EVQLLESGGGLVQPGGSLRLSCAASGFTFSWYDMTWVRQAPGKGLEWVSSISPSGGYTKYADSVKGRFTISRDNSKNTLYLQMNSLRAEDTAVYYCTTEFYDYLDVWGKGTTVTVSS
VL: DIQMTQSPGTLSLSPGEGATLSCRASQSVSSTYLAWYQQKPGQAPRLLIYEASKRATGTPARFSGSGSGTDFTLSISSLEPEDFAVYYCQHRHNWPPQWTFGQGTKVEVK
notes: also called ATCC PTA-6258
Turning to B1, the binding result in test [1] is given as “binds”.

B2: anti-HMG1 antibody S16 (antibody, V domains shown)
VH: EVQLLESGGGLVQPGGSLRLSCAASGFTFSWYSMLWVRQAPGKGLEWVSYISPSGGFTNYADSVKGRFTISRDNSKNTLYLQMNSLRAEDTAVYYCARWDYNSGWYYDHWGQGTLVTVSS
VL: DIQMTQSPDTLSLSPGERATLSCRASQSVNSRNLAWYQQKPGQAPRLLIYGASTRATGIPDRFSGSVSGTEFTLTISSLQPDDFATYYCQQYNSYFTFGQGTKLEIK
notes: also called ATCC PTA-6259
Regarding B2, in test [2], the “IC50, inhibition of native activated HMG1 stimulated IL-6 release from human PBMC” value stood at 38.9 nM.
